We go through two substances from patent publication US20150355179.

In data set [1] the test system is CDKACT-WWH1 biosensor labelled with Cy3.
The test system of data set [2] is CDKACT-WWH1 biosensor labelled with Cy5.
Data set [3] relates to GST-CDKACTH1 labelled with Cy3 (CDKACTH1-Cy3).
Sequence of GST-CDKACTH1 labelled with Cy3 (CDKACTH1-Cy3) (chain, as listed by the source): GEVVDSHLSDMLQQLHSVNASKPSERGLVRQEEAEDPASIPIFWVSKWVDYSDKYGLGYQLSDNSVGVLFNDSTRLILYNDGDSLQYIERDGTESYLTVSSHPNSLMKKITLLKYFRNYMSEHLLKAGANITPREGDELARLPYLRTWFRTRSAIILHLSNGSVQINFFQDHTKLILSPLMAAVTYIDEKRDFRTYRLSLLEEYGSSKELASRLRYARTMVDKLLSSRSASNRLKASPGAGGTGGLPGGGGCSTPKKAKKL

Sequence of CDKACT-WWH1 biosensor labelled with Cy5 (chain, as listed by the source): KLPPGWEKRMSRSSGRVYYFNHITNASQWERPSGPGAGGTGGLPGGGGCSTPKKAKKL

Turning to “recombinant active CDK2/Cyclin A (GST-CDK2/CIV complexed with His-Cyclin A)”, the “real-time fluorescence kinase assay (Cy3 fluorescence)” value was “Both CDKACTH1 and CDKACTWWH1 report on CDK2/CyclinA activity, however CDKACTWWH1 yields greater changes in fluorescence enhancement” in data set [1]; “Both CDKACTH1 and CDKACTWWH1 report on CDK2/CyclinA activity” in data set [3]. Further, the “real-time fluorescence kinase assay (Cy5 fluorescence)” value in data set [2] is given as “CDKACTWWH1, reports on CDK2/CyclinA activity, through significant changes in fluorescence enhancement”. Further, the “competition in the fluorescence kinase assay (phosphorylation of CDKACTH1-Cy3)” value was “histone and unlabelled sensor prevented full phosphorylation of CDKACTH1” with histone H1; “histone and unlabelled sensor prevented full phosphorylation of CDKACTH1” in the data set with unlabelled GST-CDKACTH1. Moreover, the “radioactive kinase assay (phosphorylation, 30 min at 30 C)” value with unlabelled GST-CDKACTH1 was “CDKACT-H1 is phosphorylated by GST-CDK2/Cyclin A and GST-CDK1-Cyclin B in a standard kinase assay”.
In the case of “recombinant CDK1/Cyclin B (GST-CDK1/CIV Cyclin B)”, in data set [3], the “real-time fluorescence kinase assay (Cy3 fluorescence)” value was “CDK1/Cyclin B indeed phosphorylated CDKACTH1, however in the same conditions as CDK2/Cyclin A it did not induce the same response”. Besides, the “radioactive kinase assay (phosphorylation, 30 min at 30 C)” value with unlabelled GST-CDKACTH1 is “CDKACT-H1 is phosphorylated by GST-CDK2/Cyclin A and GST-CDK1-Cyclin B in a standard kinase assay”.
